From the DeepSol protein solubility set come the findings set out here.

The data set in a line: soluble on expression in E. coli; label from the status in PepcDB or PDB records.
Take “MASSTISLQSISMTTLNNLSYSKQFHRSSLLGFSKSFQNFGISSNGPGSSSPTSFTPKKKLTPTRALSQNLGNTENPRPSKVQELSVYEINDLDRHSPKILKNAFSFRFGLGDLVPFTNKLYTGDLKKRVGITAGLCVVIEHVPEKNGDRFEATYSFYFGDYGHLSVQGPYLTYEDSFLAITGGAGIFEGAYGQVKLQQLVYPTKLFYTFYLKGLANDLPLELIGTPVPPSKDVEPAPEAKALKPSGVVSNFTN”: the “soluble on expression in E. coli” value is on record as “soluble”.
As for “MSSLPETLMNRLHDHERLTQNEGEALYDLDLFTLGREADRRRVKKHGKKVFFNSNRHINPTNICQDICKFCAFSSHRKNPNPYAMSIDEILEIAKESTALGARELHVVSAHNPNYGYQWYGEMFKTIKEALPHIHLKAMTAAEVDFLSRRFEKPYEQVLEDMLLWGVDSMPGGGAEIFDEEVRARLCGGKVSSGRWLEIHGYWHSLGKQSNATMLFGHIENRTHRIDHMLRLRELQDRYGGFNAFIPLLYQKENNFLKVERFPTGQEILKTLAISRILLDNIPHIKAYWATLGLNLAMVAQEFGADDLDGTIQKESIQSAAGSGSGHGVSKEELIFQIKDAGFIPVERDSLYNEIQIYA”, the entry is “not soluble”; as for “GSSHHHHHHSSGLVPRGSHMSVQNVVLFDTQPLTLMLGGKLSYINVAYQTYGTLNDEKNNAVLICHALTGDAEPYFDDGRDGWWQNFMGAGLALDTDRYFFISSNVLGGCKGTTGPSSINPQTGKPYGSQFPNIVVQDIVKVQKALLEHLGISHLKAIIGGSFGGMQANQWAIDYPDFMDNIVNLCSSIYFSAEAIGFNHVMRQAVINDPNFNGGDYYEGTPPDQGLSIARMLGMLTYRTDLQLAKAFGRATKSDGSFWGDYFQVESYLSYQGKKFLERFDANSYLHLLRALDMYDPSLGYENVKEALSRIKARYTLVSVTTDQLFKPIDLYKSKQLLEQSGVDLHFYEFPSDYGHDAFLVDYDQFEKRIRDGLAGN”, “soluble”.
With “MGSDKIHHHHHHMPLSSVSRPSTQIQAQSTGKIFIIGLPRTGTTSVCVALLEQGLKVAHQGFTQQSFYQADAIADAPVFSDFKQLDGLFPGAKFVYLSRDIAPWIISMQMLLGRMLIHLDEHTGRFHPIMKRSFNHSFKLNLVTNPFDEVHLKQCYLEHQQTVEEYFTGRNDLLKININQVGSLNRLLEFIELAPQDLASSIKSAPLNFPHLNIGRNVASWDEYKHPNKVSANLSGPNKRKFFDYTLS”, the “soluble on expression in E. coli” value is “not soluble”.
In the case of “MASKLLRAVILGPPGSGKGTVCQRIAQNFGLQHLSSGHFLRENIKASTEVGEMAKQYIEKSLLVPDHVITRLMMSELENRRGQHWLLDGFPRTLGQAEALDKICEVDLVISLNIPFETLKDRLSRRWIHPPSGRVYNLDFNPPHVHGIDDVTGEPLVQQEDDKPEAVAARPRQYKDVAKPVIELYKSRGVLHQFSGTETNKIWPYVYTLFSNKITPIQSKEAYLEHHHHHH”, the “soluble on expression in E. coli” value is “soluble”.
Regarding “MDDHGRTPSTNQPILYVLDTNVLIHDPNALLNFEEHHVAIPMTVLEELDKLKAGKHSVAAECRQAIRLIDKTLGEASPEEVEKGVPIDRGTGVFKGFLSILMSKREEPNSLLPEHLNDNIIINQLIDLHARNKDLSVVLVTKDINMRLKARACGIDAEDYSTDQLVDDVSLLSRGYHDMTGSFWDRVNKVDTRQERGRTWHRVQLNEMLPAVHINEFIVDEQGFVGWIKGVKNDELLILDMHQEPLLHQEAWGLKPRDIYQGLALFALLDPDIHLVNLSGPAGSGKTILALAAAIEQTMVTKRYRRIIATRSVQGLDQEIGFLPGTEAEKMEPWLGAITDNLEALHMDDENTHGSVDYILSKVPLQFKSLNYIRGRSFQQSLILIDECQNLTPHQMKTIITRAGAGSKVVCLGNLAQIDTPYLSATSSGLTYLTERFKDFPNGVHLTLQGVPRSILAEYAESHL”, the “soluble on expression in E. coli” value is “soluble”.
The value for “MGSDKIHHHHHHMKVAYLSSAYLAPVEYYSKLLNYDKIFIEQHDHYMKQTYRNRCTIAGPEGELALSIPIVKPEEPKCPMKDIRISDHGNWRHLHWNAIESAYNSTPFFEYYKDDFRPFYEKKYEFLTDFNEELCRLVCELIDIQPAIERTKEYKTDFAPNEIDFREAIHPKKDFHRTDPEFIPQPYYQVFEARYGFLPNLSIIDLLFNMGPESLLILQKTCADSQ” was “not soluble”.
For the sequence “MNFGKSSWRTYEQGIQREWLLTNGIGGFASSTIIGSNTRRYHGLLVAALKPPVSRHLILSKIDECVTVDNESFNLFSYEVPGFIMHGYHHLERFEYDMLPKYIYRVKDVYVEKEICMVYGENTVVVVYHVINGTGRTNLRLTPLVNFRDYHFNSGRAYMSFERKFEKDVLTVRPSCYDIDIKLYSTDGKFTELDDTWFYNMDYAVERERGLASTEDHYIPGYYDIEIKPLEEKYITFVATVEKNVNHRDGLKIIEKEKKRLKKLASKAGYKDELAKKLVLAADKFIVHRESTNAKTVIAGYPWFTDWGRDTMISLAGLTLATRRFEDAKEILYTFSKYVKDGLIPNMFPDAGHEPPYNTVDAALWYFEAVNKYVNYTHDYKFIKENIYSGLKQIIEYYSKGTHFNIKADEDYLISAGDEHTQLTWMDAKVGDWVVTPRHGKAVEINALWYNALKIMSQLSKHFKEDAGLYDEMAEKVKKSFEEKFWNEEKKCLYDCLTPNYKDDKVRPNQILAVSLSYPVIEGEKAKSVVDIVFKELYTAYGLRSLSPKEKEYVGVYMGDQYRRDGAYHQGTVWTWPLGHFITAYLRVNNYSPEARKMALRFIEPFKDHLQDACLGSVSEIFDGNEPLIPRGCFAQAWSVAEILRAYVEDVMQLVQLKH”, the “soluble on expression in E. coli” value is given as “soluble”.
As for “MTAPKVFVSHASEDKARFVVDFARRLRENGVDAWLDQWEMKPGDSLVDKIFEEGLREARAVVIVLSATSVRKPWVREELNASVVNRISRGTKLIPVVIDDCDVPEALRSTVLEHHHHHH”, the entry is “not soluble”; as for “MSLLIRELETNDLDNFPEIDDSFIVNARLMLSLSKVNRRIEYTVEDVPSYEKSYLQNDNEELVYNEYINKPNQIIYIALLHNQIIGFIVLKKNWNNYAYIEDITVDKKYRTLGVGKRLIAQAKQWAKEGNMPGIMLETQNNNVAACKFYEKCGFVIGGFDFLVYKGLNMTSDEVAIYWYLHFDS”, “not soluble”.
As for “MAHHHHHHMESPQVAELNEDIVELNKLLAQAVRENVKEKIKKCIENTTVEIAKLKLEESQTPNKITEKNTPLNDSNISYNSVQSFAWNQEGNKVTVFLTVKDIHTIDKEKISAEFNERNFEVKMHQVNKKNYRFCVKKLHEKIVPGKCSFKVKKDALHVYLIKQDQKYWDNLHFKESPMSKIRAPKMDEQAEPSTMLMNMMKQLYQEGDSDMKRTIAKAWCEANEKKSDFSVPNF”, the entry is “soluble”.
Regarding “MRAVVVGAGLGGLLAGAFLARNGHEIIVLEKSAMIGGRFTNLPYKGFQLSTGALHMIPHGEDGPLAHLLRILGAKVEIVNSNPKGKILWEGKIFHYRESWKFLSVKEKAKALKLLAEIRMNKLPKEEIPADEWIKEKIGENEFLLSVLESFAGWADSVSLSDLTALELAKEIRAALRWGGPGLIRGGCKAVIDELERIIMENKGKILTRKEVVEINIEEKKVYTRDNEEYSFDVAISNVGVRETVKLIGRDYFDRDYLKQVDSIEPSEGIKFNLAVPGEPRIGNTIVFTPGLMINGFNEPSALDKSLAREGYTLIMAHMALKNGNVKKAIEKGWEELLEIFPEGEPLLAQVYRDGNPVNRTRAGLHIEWPLNEVLVVGDGYRPPGGIEVDGIALGVMKALEKLNLGSFSEWYLLEHHHHHH”, the “soluble on expression in E. coli” value is “soluble”.
“MAKKVAIYTRVSTTNQAEEGFSIDEQIDRLTKYAEAMGWQVSDTYTDAGFSGAKLERPAMQRLINDIENKAFDTVLVYKLDRLSRSVRDTLYLVKDVFTKNKIDFISLNESIDTSSAMGSLFLTILSAINEFERELEY”: the “soluble on expression in E. coli” value was “soluble”.
As for “MNIHEYQGKAVLRSYGVSVPNGKVAFTVEEAVEAAKELGTDVCVVKAQIHAGGRGKAGGVKVAKNLDEVRTYAESILGTTLVTHQTGPEGKEVKRLLIEEGCDIKKEYYVGLVLDRATSQVVLMASEEGGTEIEEVAEKTPEKIFKEYIDPAVGLQGFQARRIAFNINIPKELVGQAVKFMMGLYRAFIEKDCSIAEINPLVTTGDGKVMALDAKLNFDSNALYRHKDILELRDLDEEDAKEIEASKYDLNYIPLDGNIGCMVNGAGLAMATMDIIKHYHGDPANFLDVGGGATAEKVTEAFKIILSDKNVKGIFVNIFGGIMKCDVIAEGVIEATKQVGLELPLVVRLEGTNVELGKKILNESGLNIVAAESMTDGAQKIVSLVG”, the entry is “not soluble”.
Turning to “MSGGLLKALRSDSYVELSQYRDQHFRGDNEEQEKLLKKSCTLYVGNLSFYTTEEQIYELFSKSGDIKKIIMGLDKMKKTACGFCFVEYYSRADAENAMRYINGTRLDDRIIRTDWDAGFKEGRQYGRGRSGGQVRDEYRQDYDAGRGGYGKLAQNQ”, the “soluble on expression in E. coli” value is on record as “soluble”.
As for “MAHHHHHHMGTLEAQTQGPGSMALNSAVILAGCGHMDGSEIREAVLVMLELDRHNVNFKCFAPNKNQKQVVDHKKKESVGEVRNILVESARIARGSVYDIEQIRVEEFDMLVIPGGYGVAKNFSNLFDEDKENDYILPEFKNAVREFYNAKKPIGAVCISPAVVVALLKDIAKVKVTIGEDSNGLIDKMGGVHVDCPTIKSVKDDVNRIFSCSAYMRNDSLYNVYLGIQDMISSMVNYLKSK”, the “soluble on expression in E. coli” value is given as “soluble”.
For the sequence “MADETTMRAGRGPGRACGRVSGVRILVVEDEPKMTALLARALTEEGHTVDTVADGRHAVAAVDGGDYDAVVLDVMLPGIDGFEVCARLRRQRVWTPVLMLTARGAVTDRIAGLDGGADDYLTKPFNLDELFARLRALSRRGPIPRPPTLEAGDLRLDPSEHRVWRADTEIRLSHKEFTLLEALIRRPGIVHTRAQLLERCWDAAYEARSNIVDVYIRYLRDKIDRPFGVTSLETIRGAGYRLRKDGGRHALPR”, the “soluble on expression in E. coli” value is recorded as “not soluble”.
For the sequence “MSLDYDLLIKNGQTVNGMPVEIAIKEKKIAAVAATISGSAKETIHLEPGTYVSAGWIDDHVHCFEKMALYYDYPDEIGVKKGVTTVIDAGTTGAENIHEFYDLAQQAKTNVFGLVNISKWGIVAQDELADLSKVQASLVKKAIQELPDFVVGIKARMSRTVIGDNGITPLELAKQIQQENQEIPLMVHIGSAPPHLDEILALMEKGDVLTHCFNGKENGILDQATDKIKDFAWQAYNKGVVFDIGHGTDSFNFHVAETALREGMKAASISTDIYIRNRENGPVYDLATTMEKLRVVGYDWPEIIEKVTKAPAENFHLTQKGTLEIGKDADLTIFTIQAEEKTLTDSNGLTRVAKEQIRPIKTIIGGQIYDNEGHHHHHH”, the “soluble on expression in E. coli” value was “soluble”.
The value for “MAFLSQLQGGFAQLKQKAEAAAPSIADSLNQLKEAPKFMESAFKTGLNKVKLDSLGKVLNVPSLGRTQSPIDIVPVITAFGEHLQNAHFEVTYESTGEFKAVNDGNSIWLMREGNSSELAISFLPEEQYHLDAVNFHWATEPMNGSEHTIGGVGYAGEMHLIHRNTRFATMADALKQPNGVIAIAVFLNESHDDNAVFSPLINLLPQVIYKGSECKLCSFDFQTFFPVAEKTKEFWMYEGSETTDPFRETVNWIVIRAALPISSHQLDKLREVRAGRYDEEFSDKVPMKPLRPIQNPSSRTIQSSFRSVAGAPDLGFRQ” was “not soluble”; that for “TKEGMLHYKAGTSYLGKEHWKTCFVVLSNGILYQYPDRTDVIPLLSVNMGGEQCGGCRRANTTDRPHAFQVILSDRPCLELSAESEAEMAEWMQHLCQAVSKGVIPQGVAPS” was “soluble”.
The value for “MGNSHSVTTALHSVLKQREIKVSTRTLETFIKEIERISPWYACSGSLTLSSWEKLREDLAKEQQNGKLKAGTMPLWKLVRSCLEDERCRPAIITGQAILEEAQDSMAETEWCERLGAPKKGKCAQSKKPFQRP” was “soluble”.
